According to patent publication US12723255B2, “Herbicide tolerance genes and methods of use thereof” (priority 2014, dated 2026):
Read-outs that look alike come from different tables or passages of the source.

B1: MON-HT1: engineered oxygenase protein, amino acid sequence SEQ ID NO:14 (protein)
chain: MHAALTPLTNKYRFIDVQPLTGVLGAEITGVDLREPLDDSTWNEILDAFHTYQVIYFPGQAITNEQHIAFSRRFGPVDPVPILKSIEGYPEVQMIRREANESSRFIGDDWHTDSTFLDAPPAAVVMRAIEVPEYGGDTGFLSMYSAWETLSPTMQATIEGLNVVHSATKVFGSLYQATNWRFSNTSVKVMDVDAGDRETVHPLVVTHPVTGRRALYCNQVYCQKIQGMTDAESKSLLQFLYEHATKFDFTCRVRWKKDQVLVWDNLCTMHRAVPDYAGKFRYLTRTTVAGDKPSR
B2: MON-HT8: engineered oxygenase protein, amino acid sequence SEQ ID NO:37 (protein)
chain: MHAALTPLTNKYRFIDVQPLTGVLGAEITGVDLREPLDDSTWNEILDAFHTYQVIYFPGQAITNEQHIAFSRRFGPVDPVPILKSIEGYPEVQMIRREANESGRVIGDDWHTDSTFLDAPPAAVVMRAIEVPEYGGDTGFLSMYSAWETLSPTMQATIEGLNVVHSATKVFGSLYQATNWRFSNTSVKVMDVDAGDRETVHPLVVTHPVTGRRALYCNQVYCQKIQGMTDAESKSLLQFLYEHATKFDFTCRVRWKKDQVLVWDNLCTMHRSVPDYGNAFRYLTRTTVAGDKPSR
B3: MON-HT2: engineered oxygenase protein, amino acid sequence SEQ ID NO:18 (protein)
chain: MHAALTPLTNKYRFIDVQPLTGVLGAEITGVDLREPLDDSTWNEILDAFHTYQVIYFPGQAITNEQHIAFSRRFGPVDPVPLLKSIEGYPEVQMIRREANESSRVIGDDWHSDSTFLDAPPAAVVMRAIEVPEYGGDTGFLSMYSAWETLSPTMQATIEGLNVVHSATKVFGSLYQATNWRFSNTSVKVMDVDAGDRETVHPLVVTHPVTGRRALYCNQVYCQKIQGMTDAESKSLLQFLYEHATKFDFTCRVRWKKDQVLVWDNLCTMHRAAPDYAGKFRYLTRTTVAGDKPSR

Columns and labels:
[1] = enzyme activity assay at 23° C. with purified enzyme; assay type: biochemical; details: wild-type set at 100%
Description: The enzyme activity of MON-HT protein variants with haloxyfop, fenoxaprop, fluazifop, and dichlorprop as substrates was determined using the enzyme activity assay conducted at 23° C. with purified enzyme. The activity was recorded as the maximum activity as a percentage of the wild-type enzyme's activity, which was set at 100%.

F1 hybrid maize plants = test: efficacy field trial with segregating F1 hybrid plants; assay type: in vivo; details: for % Injury from V4 2,4-D / % Injury from V8 2,4-D: 2,4-D amine 2× at VE-V2 (plus quizalofop-P 0.5×), V4, V8; for % Injury from V4 Quizalofop / % Injury from V8 Quizalofop: quizalofop-P 2× at VE-V2, V4, V8
Description: Ten unique engineered proteins optimized for activity at higher temperatures were selected for maize transformation and analysis in plants. DNA constructs were produced for expressing these engineered proteins with codon usage optimized for monocot expression using methods known to those skilled in the art. Enhancers, promoters, leaders, introns, CTPs, and 3′UTRs were tested in various combinations with the engineered proteins in these DNA constructs. The DNA constructs were used to transform immature maize (LH244) embryos with these vectors using Agrobacterium tumifaciens and standard methods known in the art. Regenerated R0 transgenic plantlets were grown in the green house.
Transgenic R0 maize plants were screened by the application of quizalofop-P (2×) plus 2,4-D (2×) at 7 to 10 days following transplant into plugs (generally corresponding to V3-V4 growth stage). All constructs tested produced plants containing unique events that passed the RO screen. The R0 plants were selfed to generate R1 homozygous seed and the R0 was also used as the male to cross with inbred plants containing maize event MON89034 to generate segregating F1 hybrid seed for efficacy field trials.
An efficacy field trial was conducted with segregating F1 hybrid plants, with 50% hemizygous and 50% null for the transgene. Tolerance to quizalofop-P (2×) plus 2,4-D (2×) was assessed using two herbicide application regimens: (1) quizalofop-P (Assure II) at 0.16 lb ai/acre (2×) plus 0.25% v/v non-ionic surfactant (NIS) applied at VE-V2 growth stage followed by the same at V4 growth stage followed by the same at V8 growth stage and (2) 2,4-D amine at 2 lb ae/acre (2×) plus quizalofop-P at 0.04 lb ai/acre (0.5×) plus 0.25% v/v NIS applied at VE-V2 growth stage followed by 2,4-D amine at 2 lb ae/acre (2×) plus 0.25% v/v NIS applied at V4 growth stage followed by the same at V8 growth stage. The 50% of the plants that were null for transgene were removed by the first quizalofop-P application at VE-V2 growth stage. Plots were visually rated 10-14 days after application for crop injury on a scale of 0 to 100 with “0” being none and “100” being complete crop destruction. […] The percentage injury rating with 2× application of 2,4-D at V8 growth stage ranged from a high of 40% to a low of 0. Similarly, the percentage injury rating with 2× application of quizalofop-P at V8 growth stage ranged from a high of 90% to a low of 0. Variation in injury rating between plants expressing the same protein is likely due to variations in construct design or transgene insertion location.

[2] = kinetic analysis, non-endpoint assay at 23° C.; assay type: biochemical
Outline: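 Purified C-terminal 6-His-tagged recombinant enzymes expressed in bacteria; quizalofop-P or 2,4-D as substrate. Vmax reported as specific activity (umol herbicide product mg enzyme-1 min-1) and Km as mM herbicide substrate, with standard error.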

[3] = assay type: physicochemical; details: for T1/2, temperature where 50% of the protein was unfolded, Buffer: pH 7.5
Outline: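 Thermal shift assay: purified enzyme in 30 mM Tris pH7.5, 150 mM NaCl, with or without 50 uM Fe2+ and 1.0 mM aKG. Unfolding followed by SYPRO orange fluorescence from 10° C. to 95° C. in 0.5° C. steps; melting temperature (T1/2) taken from the curve.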

[4] = 23° C., purified His-tagged protein, standard error in parenthetical
[5] = 23° C., purified His-tagged protein, standard error in parenthetical, read-out: Km Quizalofop
[6] = standard error in parenthetical, NDB = activity not robust enough for kinetic characterization
[7] = standard error in parenthetical, NDB = activity not robust enough for kinetic characterization, read-out: Km 2,4-D

Molecule	% Injury from V4 2,4-D (F1 hybrid maize plants; CTP A) [%]	% Injury from V8 2,4-D (F1 hybrid maize plants; CTP A) [%]	% Injury from V4 Quizalofop (F1 hybrid maize plants; CTP A) [%]	% Injury from V8 Quizalofop (F1 hybrid maize plants; CTP A) [%]	% Injury from V4 2,4-D (F1 hybrid maize plants; CTP B) [%]	% Injury from V8 2,4-D (F1 hybrid maize plants; CTP B) [%]	% Injury from V4 Quizalofop (F1 hybrid maize plants; CTP B) [%]	% Injury from V8 Quizalofop (F1 hybrid maize plants; CTP B) [%]	% Injury from V4 2,4-D (F1 hybrid maize plants; CTP C) [%]	% Injury from V8 2,4-D (F1 hybrid maize plants; CTP C) [%]	% Injury from V4 Quizalofop (F1 hybrid maize plants; CTP C) [%]	% Injury from V8 Quizalofop (F1 hybrid maize plants; CTP C) [%]	% Injury from V4 2,4-D (F1 hybrid maize plants; CTP None) [%]	% Injury from V8 2,4-D (F1 hybrid maize plants; CTP None) [%]	% Injury from V4 Quizalofop (F1 hybrid maize plants; CTP None) [%]	% Injury from V8 Quizalofop (F1 hybrid maize plants; CTP None) [%]	Vmax Quizalofop [2, 4]	Km [2, 5] [µM]	Vmax 2,4-D [2, 6]	Km [2, 7] [µM]	other results
B1	7.5	5.83	8.33	8.33	10	10	7.5	8.75	14.09	11.36	0.45	0.91	12.86	10.71	7.14	7.86	0.76 (−0.04) umol herbicide product mg enzyme-1 min-1	170	0.95 (−0.03) umol herbicide product mg enzyme-1 min-1	30	maximum activity as a percentage of the wild-type enzyme's activity, Fluazifop [1]: 67%; Vmax for 2,4-D higher than that of the wild-type enzyme [2]: 9.5 fold; Vmax for quizalofop-P relative to the wild-type enzyme ([2]; 23° C.): about half; Vmax 2,4-D ([2]; Table 10 series, unit as defined): 1.17 (0.01) umol herbicide product mg enzyme-1 min-1; Km ([2]; Table 10 series, unit as defined, read-out: Km 2,4-D): 30 µM; Vmax Quizalofop ([2]; Table 10 series, 23° C., unit as defined): 1.62 (0.05) umol herbicide product mg enzyme-1 min-1; Km ([2]; Table 10 series, 23° C., unit as defined, read-out: Km Quizalofop): 120 µM; Melting temp, Buffer ([3]; Table 11 series): 58 °C; Melting temp, Buffer plus Fe2+ and aKG ([3]; Table 11 series): 62 °C; T1/2, temperature where 50% of the protein was unfolded, Buffer plus Fe2+ and aKG [3]: 59 °C; T1/2, temperature where 50% of the protein was unfolded, Buffer [3]: 56 °C
B2	10	10	1.25	1.25	12.5	11.67	9.17	8.33	20	21.25	30	32.5	0	0	85	90	0.46 (−0.02) umol herbicide product mg enzyme-1 min-1	110	0.11 (−0.01) umol herbicide product mg enzyme-1 min-1	140	maximum activity as a percentage of the wild-type enzyme's activity, Haloxyfop ([1]; purified enzyme): 99%; maximum activity as a percentage of the wild-type enzyme's activity, Fluazifop [1]: 50%; T1/2, temperature where 50% of the protein was unfolded, Buffer plus Fe2+ and aKG [3]: 61 °C; T1/2, temperature where 50% of the protein was unfolded, Buffer [3]: 61 °C
B3	20	34.17	0	0	10.56	13.33	11.67	11.67	12	12	14.33	14.33	20	33.75	0	0	1.41 (−0.11) umol herbicide product mg enzyme-1 min-1	410	0.23 (−0.01) umol herbicide product mg enzyme-1 min-1	40	maximum activity as a percentage of the wild-type enzyme's activity, Dichlorprop [1]: 92%; T1/2, temperature where 50% of the protein was unfolded, Buffer plus Fe2+ and aKG [3]: 58 °C; T1/2, temperature where 50% of the protein was unfolded, Buffer [3]: 55 °C
